# Biological target: T1, 6xHis-PBL34 (Arabidopsis thaliana, UniProt Q9LFP7 1-493)
# T1 construct: also called 6x His-tagged PBL34 fusion protein; source: E. coli BL21(DE3)-VR2-pACYC-LamP, purified (HisPur cobalt resin); not shown: 6xHis, N-terminal, kept
# T1 sequence (looked up): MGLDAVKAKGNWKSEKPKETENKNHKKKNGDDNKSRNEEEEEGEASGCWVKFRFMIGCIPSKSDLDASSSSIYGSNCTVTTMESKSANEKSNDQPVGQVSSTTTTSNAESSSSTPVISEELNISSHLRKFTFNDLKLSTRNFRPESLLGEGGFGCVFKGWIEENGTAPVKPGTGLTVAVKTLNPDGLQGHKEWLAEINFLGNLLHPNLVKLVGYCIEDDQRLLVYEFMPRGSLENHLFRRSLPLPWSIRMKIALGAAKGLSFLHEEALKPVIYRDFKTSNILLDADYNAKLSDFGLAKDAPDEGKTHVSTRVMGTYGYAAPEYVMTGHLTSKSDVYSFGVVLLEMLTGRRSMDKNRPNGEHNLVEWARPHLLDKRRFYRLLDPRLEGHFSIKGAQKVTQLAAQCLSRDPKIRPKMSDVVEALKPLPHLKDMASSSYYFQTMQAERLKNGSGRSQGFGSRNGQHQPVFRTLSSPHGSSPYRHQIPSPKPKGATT
# Assay: pull-down; in vitro pulldown with amylose beads; MBP fusion protein as bait, 6xHis-PBL34 detected by Western blot
# Conditions: both partners purified
binder,measurement,value
"6xHis-MBP-BRX (natural protein, Arabidopsis thaliana, UniProt Q17TI5 1-344, looked up, source: E. coli BL21(DE3) Rosetta pLysS, purified (HisPur cobalt resin); not shown: MBP, N-terminal, kept) MFSCIACTKADGGEEVEHGARGGTTPNTKEAVKSLTIQIKDMALKFSGAYKQCKPCTGSSSSPLKKGHRSFPDYDNASEGVPYPFMGGSAGSTPAWDFTNSSHHPAGRLESKFTSIYGNDRESISAQSCDVVLDDDGPKEWMAQVEPGVHITFASLPTGGNDLKRIRFSREMFDKWQAQRWWGENYDKIVELYNVQRFNRQALQTPARSDDQSQRDSTYSKMDSARESKDWTPRHNFRPPGSVPHHFYGGSSNYGPGSYHGGPPMDAARTTTSSRDDPPSMSNASEMQAEWIEEDEPGVYITIRQLSDGTRELRRVRFSRERFGEVHAKTWWEQNRERIQTQYL",binding result,binds

# Reference: PMC9879999, “A phosphoinositide hub connects CLE peptide signaling and polar auxin efflux regulation” (Nature Communications, 2023)
